The target in experiment [1] is T1, Nef protein (HIV-1 NL43), wild type (HIV-1 NL4-3 (NL43), strain).
T1 chain: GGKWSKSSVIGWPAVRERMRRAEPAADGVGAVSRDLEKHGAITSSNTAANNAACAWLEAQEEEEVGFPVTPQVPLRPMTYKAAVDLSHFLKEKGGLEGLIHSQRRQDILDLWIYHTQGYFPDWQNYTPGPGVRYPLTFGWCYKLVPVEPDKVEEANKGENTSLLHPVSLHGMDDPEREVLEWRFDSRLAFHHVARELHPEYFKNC

Experiment [2] addresses T1, Nef protein (HIV-1 NL43), wild type. As to the kind of experiment: far-Western, overlay or dot blot; Western blotting: Nef wt and Nef Δ2-11 resolved by SDS-PAGE, transferred to PVDF, probed with the anti-Nef antibody, detected with anti-streptavidin IgG-HRP; anti-His-tag antibody as control. The note with it: both partners purified.

Like-named read-outs stand apart in the source and are kept apart here.

B1: anti-Nef (antibody, V domains shown)
VH: QVQLQQSGAELVKPGASVKLSCTASGFNIKDTYMHWVKQRPEQGLEWIGRIDPANGNTKYDPKFQGKATITADTSSNTAYLQLSSLTSEDTAVYYCASYYGIYWGQGTTLTVSS
VL: DIKMTQSPSSLSASLGERVSLTCRASQEISGYLSWLQQKPDGTIKRLIYAVSTLDSGVPKRFSGSRSGSDYSLTISSLESEDFADYYCLQYATYPLTFGAGTKLELK
In the case of B1, the binding result in experiment [1] is on record as “binds”.

B2: anti-Nef antibody (single-chain variable fragment for which the antigen is HIV Nef protein) (scFv, V domains shown)
VH: EVKLVESGAELVRPGASVKLSCTASGFNIKDDYMHWVKQRPEQGLEWIGWIDPENGDTEYASKFQGKATITADTSSNTAYLQLSSLTSEDTAVYYCTTRDVWGAGTTVTVMA
VL: B1 VL
notes: scFv isolated in vitro from a constructed mouse antibody library; Section 2.4 describes expression in E. coli MV1184 and purification on an IgG-conjugated column for the antibody vectors; also called wt anti-Nef antibody; scFv
In the case of B2, the binding result in experiment [2] is on record as “binds”.

For the origin of these results see PMC6111544, “Development of a Novel Q-body Using an In Vivo Site-Specific Unnatural Amino Acid Incorporation System” (Sensors (Basel, Switzerland), 2018).
